The target of series [1] is Ig-CD95L (extracellular region of CD95L fused to a dimerization domain (Ig) of the LIF receptor gp190) (UniProt P48023). Description: SEC; gel filtration analysis, unpublished data. In general terms: In gel filtration, larger molecules generally elute earlier.
Series [2] concerns the molecule itself. Description: SEC; size exclusion on S-200-HR Sephacryl columns; fractions harvested and cl-CD95L dosed by ELISA.

We go through two molecules from PMC3119658, “The Naturally Processed CD95L Elicits a c-Yes/Calcium/PI3K-Driven Cell Migration Pathway” (PLoS Biology, 2011).

The term stoichiometry N denotes a count of units in the complex or per binding partner.

“Ig-CD95L (extracellular region of CD95L fused to a dimerization domain (Ig) of the LIF receptor gp190) (from UniProt P48023 105-281) (ligand)” had a stoichiometry N in series [1] of 12.

B1: metalloprotease-cleaved CD95L (ligand, UniProt P48023 127-281, looked up)
chain: LEKQIGHPSPPPEKKELRKVAHLTGKSNSRSMPLEWEDTYGIVLLSGVKYKKGGLVINETGLYFVYSKVYFRGQSCNNLPLSHKVYMRNSKYPQDLVMMEGKMMSYCTTGQMWARSSYLGAVFNLTSADHLYVNVSELSLVNFEESQTFFGLYKL
notes: In the functional row the CD95L is the soluble ligand in sera of SLE patients, not the 293-made preparation; also called cl-CD95L; naturally processed CD95L; source: 293 cells transfected with wild type CD95L cDNA; exosome-free supernatant, concentrated (10 kDa cut-off) and dialyzed against PBS
As for B1, in series [2], the “stoichiometry N” value stood at 3.
